According to IntAct's records for PubMed 22579247:

B1: Abscisic acid receptor PYL3 (Arabidopsis thaliana (Mouse-ear cress)), Q9SSM7 (parent)
chain: MNLAPIHDPSSSSTTTTSSSTPYGLTKDEFSTLDSIIRTHHTFPRSPNTCTSLIAHRVDAPAHAIWRFVRDFANPNKYKHFIKSCTIRVNGNGIKEIKVGTIREVSVVSGLPASTSVEILEVLDEEKRILSFRVLGGEHRLNNYRSVTSVNEFVVLEKDKKKRVYSVVLESYIVDIPQGNTEEDTRMFVDTVVKSNLQNLAVISTASPT

Variants of: B1
Settings: with HAB1, Q9CAJ0

| Variant | effect of a mutation on the interaction |
| --- | --- |
| MNLAPIHDPSSSSTTTTSSSTPYGLTKDEFSTLDSIIRTHHTFPRSPNTCTSLIAHRVDAPAHAIWRFVRDFANPNKYKHFIKSCTIRVNGNGIKEIKVGTIREVSVVSGLPASTSVEILEVLDEEKRILSFRVLGGEHRLNNYRSVTSVNEFVVLEKDKKKRVYSVVLESYIVDIPQGNTEEDTRMFVDTVVKLNLQNLAVISTASPT [S195L] | increasing interaction strength |
| MNLAPIHDPSSSSTTTTSSSTPYGLTKDEFSTLDSIIRTHHTFPRSPNTCTSLIAHRVDAPAHAIWRFVRDFANPNKYKHAIKSCTIRVNGNGIKEIKVGTIREVSVVSGLPASTSVEILEVLDEEKRILSFRVLGGEHRLNNYRSVTSVNEFVVLEKDKKKRVYSVVLESYIVDIPQGNTEEDTRMFVDTVVKSNLQNLAAASTASPT [F81A;V202A;I203A] | increasing interaction strength |
